Measurements as given in IntAct's records for PubMed 21460856.

Key:
mdm2_human MDM2 = mdm2_human MDM2 (UniProt Q00987)
atm_human ATM = atm_human ATM (UniProt Q13315)
atm_human ATM, sequence (Q13315 whole entry): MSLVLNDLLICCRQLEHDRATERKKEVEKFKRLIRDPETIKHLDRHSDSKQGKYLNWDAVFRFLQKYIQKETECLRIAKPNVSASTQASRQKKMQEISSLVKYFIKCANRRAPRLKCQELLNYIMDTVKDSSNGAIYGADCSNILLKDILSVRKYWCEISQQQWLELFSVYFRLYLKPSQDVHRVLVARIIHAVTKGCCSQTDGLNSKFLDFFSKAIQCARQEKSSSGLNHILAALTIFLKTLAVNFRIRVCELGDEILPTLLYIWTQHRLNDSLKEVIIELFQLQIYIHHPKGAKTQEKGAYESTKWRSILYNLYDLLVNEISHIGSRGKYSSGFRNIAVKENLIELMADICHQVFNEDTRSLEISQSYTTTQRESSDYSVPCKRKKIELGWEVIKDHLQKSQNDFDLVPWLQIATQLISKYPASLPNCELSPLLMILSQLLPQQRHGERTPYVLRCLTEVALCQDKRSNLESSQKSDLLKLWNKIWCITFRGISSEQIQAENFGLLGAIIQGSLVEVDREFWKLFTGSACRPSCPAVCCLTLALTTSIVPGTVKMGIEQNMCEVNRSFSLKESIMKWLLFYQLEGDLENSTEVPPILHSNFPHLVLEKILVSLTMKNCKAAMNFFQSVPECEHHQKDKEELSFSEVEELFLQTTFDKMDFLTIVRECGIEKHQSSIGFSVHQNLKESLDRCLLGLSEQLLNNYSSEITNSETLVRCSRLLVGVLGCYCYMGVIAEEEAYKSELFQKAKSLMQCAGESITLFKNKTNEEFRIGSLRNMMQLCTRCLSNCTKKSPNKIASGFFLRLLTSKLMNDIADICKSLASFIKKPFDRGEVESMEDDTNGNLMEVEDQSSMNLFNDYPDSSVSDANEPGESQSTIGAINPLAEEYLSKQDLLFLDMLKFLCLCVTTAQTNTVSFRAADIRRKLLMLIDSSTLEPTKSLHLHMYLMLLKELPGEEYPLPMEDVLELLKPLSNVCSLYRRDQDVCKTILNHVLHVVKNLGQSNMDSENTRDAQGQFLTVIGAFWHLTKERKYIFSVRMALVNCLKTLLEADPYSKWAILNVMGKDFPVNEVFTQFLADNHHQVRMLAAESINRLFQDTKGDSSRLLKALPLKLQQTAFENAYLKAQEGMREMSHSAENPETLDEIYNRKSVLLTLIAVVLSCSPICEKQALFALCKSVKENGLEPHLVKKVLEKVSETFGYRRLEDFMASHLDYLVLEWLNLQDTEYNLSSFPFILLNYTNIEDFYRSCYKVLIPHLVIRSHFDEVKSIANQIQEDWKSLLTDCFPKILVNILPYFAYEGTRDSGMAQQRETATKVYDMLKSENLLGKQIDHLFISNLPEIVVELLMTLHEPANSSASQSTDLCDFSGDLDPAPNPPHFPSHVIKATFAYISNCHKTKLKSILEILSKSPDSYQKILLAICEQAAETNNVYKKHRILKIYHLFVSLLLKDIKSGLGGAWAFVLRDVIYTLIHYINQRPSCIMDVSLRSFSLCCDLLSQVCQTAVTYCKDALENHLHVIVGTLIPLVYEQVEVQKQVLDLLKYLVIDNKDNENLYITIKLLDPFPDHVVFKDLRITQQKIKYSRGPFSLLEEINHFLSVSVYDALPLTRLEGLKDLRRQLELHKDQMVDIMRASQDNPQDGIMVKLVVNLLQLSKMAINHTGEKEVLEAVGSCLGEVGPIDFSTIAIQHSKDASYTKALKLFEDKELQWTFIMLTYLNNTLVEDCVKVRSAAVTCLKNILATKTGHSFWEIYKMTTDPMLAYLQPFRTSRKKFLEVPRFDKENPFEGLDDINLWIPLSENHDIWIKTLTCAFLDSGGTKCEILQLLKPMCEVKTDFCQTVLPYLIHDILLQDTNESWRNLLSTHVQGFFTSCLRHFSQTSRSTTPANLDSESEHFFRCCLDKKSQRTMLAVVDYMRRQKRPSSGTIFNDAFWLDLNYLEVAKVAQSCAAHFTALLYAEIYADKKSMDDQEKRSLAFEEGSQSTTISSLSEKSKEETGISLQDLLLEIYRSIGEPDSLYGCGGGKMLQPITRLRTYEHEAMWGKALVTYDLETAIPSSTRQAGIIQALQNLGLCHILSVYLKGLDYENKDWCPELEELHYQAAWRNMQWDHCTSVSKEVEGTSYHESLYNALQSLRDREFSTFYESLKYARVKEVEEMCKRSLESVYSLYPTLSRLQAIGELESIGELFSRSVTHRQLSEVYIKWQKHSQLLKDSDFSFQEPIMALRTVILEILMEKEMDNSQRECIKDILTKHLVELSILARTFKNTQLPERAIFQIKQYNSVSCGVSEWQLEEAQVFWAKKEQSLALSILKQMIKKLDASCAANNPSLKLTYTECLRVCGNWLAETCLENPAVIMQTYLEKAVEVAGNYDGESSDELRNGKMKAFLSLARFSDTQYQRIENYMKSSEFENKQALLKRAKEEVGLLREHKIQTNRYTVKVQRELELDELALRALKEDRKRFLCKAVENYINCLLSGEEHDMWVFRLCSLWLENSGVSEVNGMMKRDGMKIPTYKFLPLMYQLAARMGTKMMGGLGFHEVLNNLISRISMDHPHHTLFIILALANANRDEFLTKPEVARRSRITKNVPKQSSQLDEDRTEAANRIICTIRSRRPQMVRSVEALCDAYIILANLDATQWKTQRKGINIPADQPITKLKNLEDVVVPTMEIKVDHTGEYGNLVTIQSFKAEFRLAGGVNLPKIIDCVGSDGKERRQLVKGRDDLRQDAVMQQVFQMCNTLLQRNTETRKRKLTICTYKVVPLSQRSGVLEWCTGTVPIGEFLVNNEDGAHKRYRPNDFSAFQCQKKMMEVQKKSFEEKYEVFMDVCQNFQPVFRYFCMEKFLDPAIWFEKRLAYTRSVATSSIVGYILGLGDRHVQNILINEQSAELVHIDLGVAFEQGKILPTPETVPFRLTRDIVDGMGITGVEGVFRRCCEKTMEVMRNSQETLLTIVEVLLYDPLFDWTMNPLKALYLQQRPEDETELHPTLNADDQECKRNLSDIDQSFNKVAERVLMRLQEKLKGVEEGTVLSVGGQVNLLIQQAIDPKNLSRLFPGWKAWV

mdm2_human MDM2, sequence (Q00987 whole entry, looked up): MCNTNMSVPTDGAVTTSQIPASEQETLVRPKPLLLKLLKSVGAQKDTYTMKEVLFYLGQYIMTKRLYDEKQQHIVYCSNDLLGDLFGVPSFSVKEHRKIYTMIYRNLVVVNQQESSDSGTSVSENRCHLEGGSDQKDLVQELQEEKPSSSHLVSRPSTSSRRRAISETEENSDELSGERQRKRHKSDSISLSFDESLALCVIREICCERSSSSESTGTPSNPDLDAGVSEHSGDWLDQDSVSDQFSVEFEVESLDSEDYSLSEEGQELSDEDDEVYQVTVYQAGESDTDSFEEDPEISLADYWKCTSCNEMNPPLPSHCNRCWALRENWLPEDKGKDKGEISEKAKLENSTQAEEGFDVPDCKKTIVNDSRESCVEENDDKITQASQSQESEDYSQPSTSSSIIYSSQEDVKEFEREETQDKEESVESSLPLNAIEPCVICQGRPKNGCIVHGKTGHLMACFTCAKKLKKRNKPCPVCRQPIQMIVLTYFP

Substance: Serine-protein kinase ATM (Homo sapiens), Q13315 D2870A;N2875K
- effect of a mutation on the interaction (PPP2R5C, Q13362-1): disrupting interaction

Substance: Serine/threonine-protein phosphatase 2A 56 kDa regulatory subunit gamma isoform (Homo sapiens) (from UniProt Q13362) S520D
- effect of a mutation on the interaction (mdm2_human MDM2): disrupting interaction

Substance: Serine/threonine-protein phosphatase 2A 56 kDa regulatory subunit gamma isoform (Homo sapiens) (from UniProt Q13362-1) S520A
- effect of a mutation on the interaction (atm_human ATM): disrupting interaction
